{"source": "patent US20150037348A1", "about": "(AbbVie / Abbott, published 2015)", "key": {"[1]": {"target": "T1, recombinant human IL-12 (rhIL-12) (human, UniProt P29459 23-219; P29460 23-328)", "T1 construct": "disulfide-linked p35/p40 heterodimer (p70); also called IL-12 p70; rec. human IL12", "T1 sequence (looked up) 1": "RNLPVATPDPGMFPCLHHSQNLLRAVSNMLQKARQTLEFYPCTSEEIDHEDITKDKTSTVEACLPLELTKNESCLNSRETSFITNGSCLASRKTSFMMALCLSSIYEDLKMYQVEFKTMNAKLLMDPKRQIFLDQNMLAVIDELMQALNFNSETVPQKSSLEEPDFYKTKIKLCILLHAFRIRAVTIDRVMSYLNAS", "T1 sequence (looked up) 2": "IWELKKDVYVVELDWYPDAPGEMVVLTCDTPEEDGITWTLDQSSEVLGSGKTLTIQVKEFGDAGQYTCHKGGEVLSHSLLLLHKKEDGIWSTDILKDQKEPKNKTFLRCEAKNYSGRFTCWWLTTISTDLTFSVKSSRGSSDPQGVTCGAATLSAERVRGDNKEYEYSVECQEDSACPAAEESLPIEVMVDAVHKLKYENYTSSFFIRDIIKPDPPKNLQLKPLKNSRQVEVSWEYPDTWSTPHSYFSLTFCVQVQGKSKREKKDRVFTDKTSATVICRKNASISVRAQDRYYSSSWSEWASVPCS", "test": "BIAcore, captured J695, soluble rhIL-12, average", "protocol": "(§1) Before injection of the protein and immediately afterward, HBS buffer alone flowed through each flow cell. […] Cytokines were diluted in HBS running buffer and 50 μl aliquots were injected through the immobilized protein matrices at a flow rate of 5 μl/min. […] The net difference in baseline signal and signal after completion of cytokine injection was taken to represent the binding value of the particular sample. Biosensor matrices were regenerated using 100 mM HCl before injection of the next sample. To determine the dissociation constant (off-rate), association constant (on-rate), BIAcore kinetic evaluation software (version 2.1) was used."}, "[2]": {"target": "T1, recombinant human IL-12 (rhIL-12)", "test": "cell-based or functional assay"}, "[3]": {"target": "T1, recombinant human IL-12 (rhIL-12)", "test": "BIAcore SPR, rhIL-12", "protocol": "as §1\nKd was calculated for each separate experiment and then averaged."}, "[4]": {"target": "T1, recombinant human IL-12 (rhIL-12)", "test": "receptor binding assay, 125I-hIL-12 on PHA blasts", "protocol": "PHA blast cells isolated as described above, were washed once and resuspended in binding buffer to a cell density of 2×10⁷ cells/ml. […] The cell pellet was examined for cell bound radioactivity using a gamma counter. […] Incubations were carried out in duplicate.\nIncubations were carried out in duplicate."}, "recombinant murine IL-12": {"target": "T2, recombinant murine IL-12 (mouse, UniProt P43431 23-215; P43432 23-335)", "T2 construct": "rmIL12 of R&D Systems, Cat. No. 419-ML, in the BIAcore test; also called mouse IL-12; rmIL12", "T2 sequence (looked up) 1": "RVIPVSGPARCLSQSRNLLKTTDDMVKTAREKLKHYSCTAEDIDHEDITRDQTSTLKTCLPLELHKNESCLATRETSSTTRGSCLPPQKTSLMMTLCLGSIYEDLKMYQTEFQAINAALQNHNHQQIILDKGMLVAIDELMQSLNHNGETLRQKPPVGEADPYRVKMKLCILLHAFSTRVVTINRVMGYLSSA", "T2 sequence (looked up) 2": "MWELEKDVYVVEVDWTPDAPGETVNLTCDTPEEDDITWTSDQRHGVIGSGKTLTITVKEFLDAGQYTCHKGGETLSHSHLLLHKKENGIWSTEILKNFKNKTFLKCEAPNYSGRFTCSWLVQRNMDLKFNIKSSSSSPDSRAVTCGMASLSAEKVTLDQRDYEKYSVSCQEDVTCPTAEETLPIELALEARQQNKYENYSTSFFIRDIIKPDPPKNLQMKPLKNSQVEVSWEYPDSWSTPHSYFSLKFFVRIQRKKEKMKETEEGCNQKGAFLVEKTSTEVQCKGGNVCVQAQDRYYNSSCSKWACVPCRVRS", "test": "BIAcore, COS J695 captured via goat anti-human IgG, cytokine in solution", "protocol": "as §1"}, "[5]": {"target": "T1, recombinant human IL-12 (rhIL-12)", "test": "cell-based or functional assay", "remark": "listed apart in the source"}, "[6]": {"target": "T1, recombinant human IL-12 (rhIL-12)", "test": "receptor binding assay, 125I-hIL-12 on PHA blasts", "remark": "listed apart in the source"}, "dog IL-12": {"target": "dog IL-12 (dog)", "test": "cell-based or functional assay"}, "murine IL-12": {"target": "T3, murine IL-12 (mouse, UniProt P43431 23-215; P43432 23-335)", "T3 construct": "Purified or recombinant murine IL-12 (R&D Systems, Cat. No. 419-ML in the BIAcore test); also called mouse IL-12; rmIL12", "T3 sequence (looked up) 1": "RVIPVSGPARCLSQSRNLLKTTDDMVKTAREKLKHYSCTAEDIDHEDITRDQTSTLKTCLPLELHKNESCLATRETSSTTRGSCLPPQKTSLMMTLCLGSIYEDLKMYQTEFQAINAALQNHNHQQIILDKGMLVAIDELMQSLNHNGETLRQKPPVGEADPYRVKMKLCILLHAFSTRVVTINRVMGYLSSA", "T3 sequence (looked up) 2": "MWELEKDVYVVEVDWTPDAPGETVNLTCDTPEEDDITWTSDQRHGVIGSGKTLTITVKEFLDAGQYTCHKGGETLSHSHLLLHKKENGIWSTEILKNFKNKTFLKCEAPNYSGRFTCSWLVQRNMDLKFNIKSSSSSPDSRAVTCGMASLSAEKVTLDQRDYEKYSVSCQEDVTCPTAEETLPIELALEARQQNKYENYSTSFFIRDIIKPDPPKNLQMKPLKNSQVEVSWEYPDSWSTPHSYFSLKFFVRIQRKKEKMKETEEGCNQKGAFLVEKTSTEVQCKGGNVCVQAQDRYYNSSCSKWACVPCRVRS", "test": "neutralization bioassay with non-human IL-12 (murine 2D6 cell proliferation)", "protocol": "2D6 cells were washed once and resuspended in RPMI complete medium containinγβME to a cell density of 1×10⁵ cells/ml. […] The culture contents were harvested and counted by liquid scintillation counting. All samples were assayed in duplicate."}, "human IGF-I": {"target": "human IGF-I (human, UniProt P05019 49-118)", "test": "competition ELISA: soluble cytokine against J695 (100 ng/ml) binding to immobilized human IL-12", "protocol": "(§2) The plates were washed 4 times and incubated for 1 h at room temperature with 100 μl mouse anti-human lambda-HRP (1:500 in PBS-T/BSA, Southern Biotech. Ass. Inc., Birmingham, Ala.). The plates were washed 4 times and developed with ABTS (Kirkegaard & Perry Lab, Gaithersburg, Md.) for 20-30 minutes in the dark. The OD₄₅₀ nm was read using a microplate reader (Molecular Devices, Menlo Park, Calif.)."}, "human IL-8": {"target": "human IL-8 (human, UniProt P10145 28-99, limits assumed)", "test": "competition ELISA: soluble cytokine against J695 (100 ng/ml) binding to immobilized human IL-12", "protocol": "as §2"}, "human IL-2": {"target": "human IL-2 (human, UniProt P60568 21-153)", "test": "competition ELISA: soluble cytokine against J695 (100 ng/ml) binding to immobilized human IL-12", "protocol": "as §2"}}, "note": "Values joined by “and” are separate entries in the source; they are usually repeats but may differ in a detail not shown here. Identical values can stand only once. Like-named read-outs stand apart in the source and are kept apart here.", "data": [{"binder": "J695 (antibody, human IgG1, V domains shown, human IgG1 with lambda light chain) VH: QVQLVESGGGVVQPGRSLRLSCAASGFTFSSYGMHWVRQAPGKGLEWVAFIRYDGSNKYYADSVKGRFTISRDNSKNTLYLQMNSLRAEDTAVYYCKTHGSHDNWGQGTMVTVSS VL: QSVLTQPPSVSGAPGQRVTISCSGSRSNIGSNTVKWYQQLPGTAPKLLIYYNDQRPSGVPDRFSGSKSGTSASLAITGLQAEDEADYYCQSYDRYTHPALLFGTGTKVTVLG", "values": [{"measurement": "Kd", "setting": "[1]", "result": "0.134 nM and 0.0974 nM"}, {"measurement": "IFN gamma IC50", "setting": "[2]", "result": 0.005, "unit": "nM"}, {"measurement": "PHA assay IC50", "setting": "[2]", "result": 0.01, "unit": "nM"}, {"measurement": "Kd", "setting": "[3]", "result": "0.119 nM and 0.149 nM"}, {"measurement": "IC50", "setting": "[4]", "result": "0.034 nM and 0.03 nM"}, {"measurement": "binding result", "setting": "recombinant murine IL-12", "result": "no binding"}, {"measurement": "PHA assay IC50 (M) p70:p40 1:0", "setting": "[5]", "result": "1e-11", "unit": "M"}, {"measurement": "PHA assay IC50 (M) p70:p40 1:50", "setting": "[5]", "result": "3.5e-11", "unit": "M"}, {"measurement": "IC50", "setting": "[6]", "result": 0.011, "unit": "nM"}]}, {"binder": "J695 (antibody, V domains shown, Human IgG1 with lambda light chain (detected with anti-human lambda); Made in CHO or COS cells) VH: QVQLVESGGGVVQPGRSLRLSCAASGFTFSSYGMHWVRQAPGKGLEWVAFIRYDGSNKYYADSVKGRFTISRDNSKNTLYLQMNSLRAEDTAVYYCKTHGSHDNWGQGTMVTVSS VL: QSVLTQPPSVSGAPGQRVTISCSGSRSNIGSNTVKWYQQLPGTAPKLLIYYNDQRPSGVPDRFSGSKSGTSASLAITGLQAEDEADYYCQSYDRYTHPALLFGTGTKVTVLG", "values": [{"measurement": "activity on dog IL-12 in the neutralization bioassay, against human IL-12", "setting": "dog IL-12", "result": "~35", "unit": "fold"}, {"measurement": "binding result", "setting": "murine IL-12", "result": "no binding"}, {"measurement": "binding result", "setting": "human IGF-I", "result": "no binding (tested: 2 nM)"}, {"measurement": "binding result", "setting": "human IL-8", "result": "no binding (tested: 2 nM)"}, {"measurement": "binding result", "setting": "human IL-2", "result": "no binding (tested: 2 nM)"}]}]}
